{"source": "the DeepSol protein solubility set"}
{"assay": "soluble on expression in E. coli; label from the status in PepcDB or PDB records"}
{"sequence": "MGSDKIHHHHHHDMNKLDSDYSVYTDYDNSVHFNEFSTYYLPDSILVPDNSLKANYWKDENAQNIISAVAHEMEQKGYVRTEDKEKANVGIQLSYAQQRIQMTTGGWYGGWWDAGFWGPYWGGGWYYPYPVTYSYDTGTLIMEMVDLRQPADKSNQNKLPVIWHAYASGLLYGNSHFNMQLTLNAVNQAFAQSPYLSNKQ", "soluble on expression in E. coli": "not soluble"}
{"sequence": "MGSDKIHHHHHHDTDKGLARRLPPPVPKDQKNDTDVDIKKRNLLVVLINSNNQILCGDQFVDIKQLKERIKEFIDNPYNDEHKPERVEADVPFFGKMMVTKNHVISLQNDRGTEYQAYIDVQNEIAAAYNELRNKVSKEKFGKNFADLDEEQQKAVQQIYPQKISEAEPKNYGGKK", "soluble on expression in E. coli": "not soluble"}
{"sequence": "MGSDKIHHHHHHEDDNIRPFGKDVEAGAPGVVSEIKVKNIPGGAVISYQLPDNPDIMYVRARYKVGQGKEMEARASVYANELTVNGFGDMNEHEVELSCVDRMENEGATTVAVVTPLKPSVLTTFESLEVNATFGGVYVNFKNPEKASLSIHVVTTDSLNQPYEAHVQYTQAEKGPFYVRGFKAEERMFDIYVVDRWGNSSDTLYNVLTPYEETRLNKKLFYPYILPNDVACNAWGGNLAYAWNDDYTPALFVHSPGGDTFPMWFTFDMGVTAKLSRYKFYHLFMEEHAFQRGNLKTWEVWGRTDTPPADGSWDGWTKLMDCESHKPSGLPVGQHTAEDWEYLQAGEDFEFPAEAPPVRYIRFKVLETWGGMDFIHFTEFTFWGNVISNN", "soluble on expression in E. coli": "not soluble"}
{"sequence": "MGSDKIHHHHHHEEDNTELSEEDRVAEMFREAGFKVEKLSSKPVNPPMTEKEASLFLAAYKNRERSGSIQIPSENIELKPDGHLVVKVKCNSEKKNFSRTRTVYKEEFDFTHWATYTVRDIEIECWQDIAGYWKSDNVNCTFTTRDPEYICGFPDINPNTGYSKGSLYFSINITVSRYSGWQIYSVDENYDYTLMLTWLPVAQEWNASLSWHETFW", "soluble on expression in E. coli": "not soluble"}
{"sequence": "MGSDKIHHHHHHEHKDLCYDHPHFATVRVVFDWTKISNHDKPEGMRVVFYPTDDESNTWIFDFPGGEDGEVELPENDYRVICFNYDTDGMVWKENGSYTLFTADTRDVRSPDNQTMAVTPPWLCGDHIDRVILKDIPEGSTKIIRLTPVNMVCHYTYEVNGIRGLDRVADLRAALSGMSGSLNMSGDSLPADLSESLLFDGMVSRNQIIGGFYTFGHSALEGEPNVFRLYLKNRSGSMSVLEQDVSDQVHDVPVAGHIGDVHLVLNFDYEVPSEPGSGGPGFDVDVDDWDDVNVDIVL", "soluble on expression in E. coli": "not soluble"}
{"sequence": "MGSDKIHHHHHHEIFSEITTDNYYQNSNNIYAALVNNYAKAFSTGWSDARYFLQEVTADQLMIPTRGKHGYNGGEYVRLHEHKWTVEENFVYNGWAAPFQGIALCNNTLSDFENLDFSTFKLTEETKNEYIAELRALRVWNYMFLIDFFRHVPIVTDIEEVKAQSTPLEVFNFMESELLAILPDLPKNRGVSRFDQAGVASILVRLYLNAEKWIGISKYDECEQMAQAILDGKYGEYSIDPDYRGPFRSGINGYRSKENIMEFAIKKNYFEASWLYNMWMHYQDRYSLDNDWQGWNGGNLAPSRDLYGNLYQDKLGMPFEKFPDGDIRKKAFRVISNDGDYEGFFLMGTQYKFDYEKGYGFTDEVITGTEEYNGKPLVYVDQVGRFSEGETGLAKGSHVIYGEENTGYRLIKFPWLPQSKDLFQMNSIPEIRLAEIYYSLAECKYRSGDKIGAARLLDVVRKRYYKAEDWSKFSYESNISKLTDDEFVDELGREFIGERHRRIDLIRWNRFSEGAWWDKTPDATNQDVFPIPYRALNANPLLKQTTAGF", "soluble on expression in E. coli": "not soluble"}
{"sequence": "MGSDKIHHHHHHENLYFQGLLPKYNILTEDQVQKIHENTMKILEEIGIEFEYEPALEVFRREGQKVEGKRVYLTREFVESKLKSAPAEFTLHARNPENNVVIGGDNIVFMPGYGAPFIYELDGSRRKTTLQDYENFAKLAGASKNMHLSGGTMAEPQDIPDGVRHLQMLYSSIKNSDKCFMGSAEGKERAEDSVEIAAILFGGKDVIKEKPVLVSLINSLTPLKYDERMLGALMAYAEAGQAVIIASLVMAGSTGPASLAGTLSLQNAEVLAGISLAQSINPGTPVIYGSTSALSDMRSGSLSIGSPECALFISASAQLARFYGVPSRSGGGLNDSKTVDAQAGYESMMTLMAANLTGVNFVLHTAGILQYFMAMSYEKFIMDDEIAGMLLHYMKGYTFDEDGMAFDVIEKVGPGGHFLTQKHTRKNHKREFYTPTLSDRSAYDTWAKEKLETKQRAHARWQQILANYVPPALDPEIDAKLQAFIAQRGKEVGEE", "soluble on expression in E. coli": "soluble"}
{"sequence": "MGSDKIHHHHHHENLYFQGMLIEIPNVFSKQEVSHLREQLDARRWIDGNQTSGAMATTRKRNQQLDKDDPVAVALGQQIMDRLLAHPQFVSAALPLQFYPPLFNRYQGGETFGYHIDNAIRSTPDGMIRTDLSATLFLSEPENYQGGELVIQDTYGQQSIKLSAGSLVLYPSSSLHQVTPVLSGERTAAFMWLQSMVRDEGQRRLLFQLDQSIQSLTAQTAAEQELFNLSGVYHNLLRRWSEL", "soluble on expression in E. coli": "soluble"}
{"sequence": "MGSDKIHHHHHHERHEFIIEVVGNAYLDDVMDWYQPSYGDYLVQAHPVIVLYYPDESYAYYERATFYEQYNDFVAAAGVIVDTADLKNDLGRIWNSYYPIYDVDVWWQADREEWQARVKGLTRDVNITTFFVVTFNGRDNYCEVVDIKDEGEIYLDNNGVYHLGPLSGVDGFAAFVQENPSRLTLESNTKILGAEVRWIK", "soluble on expression in E. coli": "not soluble"}
{"sequence": "MGSDKIHHHHHHGCDREEDERFPSGHHDPIEGDGEMVPINVKVDGVDEFPGGAVTRSGEILTKIVQPLDSTYDSGYDVETTIESLLPVNPVQTRGNMANMQFRVVAYKNNSITAANYAGTAVYSTNASGIASIVANTATPAAVSGQWVLRPGTYAFVFYSYGTNSAPAALSGNWSTTVTHNQDFMLCQKTGVDVKADASGQCLLSGISFSRQCAQLQLCVVAKEFNNNTVQQCAATISGLSNSPVTWNASQTTLPVTGTSGTLNVAWTNPNATTVNSNVYKVLPQTNRTLTIKFTTLKIGNGQMNNAITVSATSRIFSAAGNYKITVSIVPNYISVRSYKWARGNLYKSGSNFYFEASQSNYHGGATEGGFIGWNTLDIGVGKYNSGNYSTANDPCYQVVPPGTWETPSDGQLQDLINAGVTYSGSPKGFWFGGNNGVFLLALGSRDQSSTTINNTISKNGAWAFYWSRTPSGKTAKGLNAMQGNNSAGIDNSWARPDGRTIRCVKR", "soluble on expression in E. coli": "not soluble"}
{"sequence": "MGSDKIHHHHHHGIGVNSSNRLGIDNFEFIRVLGKGSFGKVMLARVKETGDLYAVKVLKKDVILQDDDVECTMTEKRILSLARNHPFLTQLFCCFQTPDRLFFVMEFVNGGDLMFHIQKSRRFDEARARFYAAEIISALMFLHDKGIIYRDLKLDNVLLDHEGHCKLADFGMCKEGICNGVTTATFCGTPDYIAPEILQEMLYGPAVDWWAMGVLLYEMLCGHAPFEAENEDDLFEAILNDEVVYPTWLHEDATGILKSFMTKNPTMRLGSLTQGGEHAILRHPFFKEIDWAQLNHRQIEPPFRPRIKSREDVSNFDPDFIKEEPVLTPIDEGHLPMINQDEFRNFSYVSPELQP", "soluble on expression in E. coli": "not soluble"}
{"sequence": "MGSDKIHHHHHHGIKNGLKEEPKINVGIKGGFNSSMYFTSRLELDGERMEDVQNNYKVGYFAAMFFRVHMKRHFIQPEIMYNIYKGEIAFNKNQNKENTLPELAKLNSTIHSLELPILYGYSFVKSRPYGMALFIGPKLEYVWKHKTSEEFEGFGYSGIKEELHPINISSVIGLGVNIANIFFDFRYEIGLTNISKSIIYKKDTDGIMSQEKGIFINRHRNVLSFSLGVIF", "soluble on expression in E. coli": "not soluble"}
{"sequence": "MGSDKIHHHHHHIANVETSSRNAIGFNVLSNAAETRATPTTNTNLKNTDFDVFAFTADGTAFMGKNDTEFEHDGVKIVYKNGKWDYDNASDLRYWPTEALDFYAFNPGTVSEDMMAFYSWEATKDVQKISYTCMDEYGSGTTHANYDVMYAMAKGQTKDMNNGIVKFNFKHILSQVVFKAKTQYDNMQVDIDVIKIHNFKFAGAFTLPAAADGTGSWSSSDLAFPHAFTVVKNANITVNSNTEATDITTNTPMLNIPQELTAWKVSETATKSKLEADNAKQCYLEIACKIRQSGAYLLGSASEYKTIYVPFGDTWEQGKRHIYTLIFGGGYDDQGEAVLNPIQFDAETTGWVDADKDVNVQP", "soluble on expression in E. coli": "not soluble"}
{"sequence": "MGSDKIHHHHHHIEAQIKEDLDLIRNGTSLLSLIPNFGMEAVTPWLDEFERGLMYELDFKREIKNIAFFRDMYRDRDDVKIPRPYSRLSTEDVIVMDYTPSVPIVRPFKAERLINMFLEQLLYEGVIHGDLHTGNIGLDSKTGSLVLYDFGNIINITSQYKTAIRDFVYGVQTGNVDAVMDNMVKMGMNVRDREVTRIFVKQYFDYLQTLDLTSFTINSPEIREKASKVPVELDSTTLTILRTYSLLEGLAKELDPSFSYARIINKNVELLFLDLEYIMYRIQKDTSS", "soluble on expression in E. coli": "not soluble"}
{"sequence": "MGSDKIHHHHHHIRMKINLGVVGAGIASRELHLPALRKLSDLFTVVAVNSRTRKKAEEFAGIVGGDVRVFDSYEEMLSSDSVDAVVLAVPISLNPKMIIAARRANKPVICEKPVAASVKEAVPLLRLPGSSPVYIAENYRHIEVYEKAAELLKEGRIGIPLAFSWLKWVDFGQDNKYVQTKWRQTPEHVGGFISDGGVHDVAALRKTLGDVEEVSGFTKKSLDYLGAENCVVFNMTLENGVIGNYSVVYGAASPLNRFEIVGTDGLMLVDKDGATIEIFAADREKIFVNKTDGFIEEFRDFYNVVEGEKNSLGTVGEALLDLATIEAGLVSAVEKRVVAVDSLLEES", "soluble on expression in E. coli": "not soluble"}
{"sequence": "MGSDKIHHHHHHKAPLDEIADDSFWSDETLVKYYVNDLYSEISVDGLQLQENRSDNSVSAQRDKYRASWFKFNYDMVSASDPQDDDVWEDYYVKVRKCNRFFERIGTSTIEESEKSRLTGEVHFLRAMFYFEMVKRYGGVILLDKVLTMEDNWEIPRSSEKECYDFILEDLKKATEMLPASYGSREKGRATKGAAYALKSRVELYDKRYEDVIKSCAEVYKLGYELVDGTTPEKYRSIWWTTNKDNKEIIFDVQYKSPDVYNNMMVCNMVTYINDKYGDRGWGGLGPTQELIDAFEMADGTPATQYSQAPADQVFDINTCGIYEGREPRFYANIVFHGSQIFFNADKGAVTVDRYLMDTPDKGDGSLTGYNVWKWIDYDNYNYPYAGAGSPDFSTNWIILRYAEIYLNDAEARLETGDVEGARKAVNMIRQRVGLPDLTESDPEKLRELIRKERRIEFAFEEQRFYDVRRWKIGPETQTTLHGVRFVSPTEFKVTKTDIRTWNDRLYLTPVPHDEIVRSSVLKQNLGY", "soluble on expression in E. coli": "not soluble"}
{"sequence": "MGSDKIHHHHHHKDEIKHLVSEWQGKEIRFPKDMVFARFATDTVDFTLPKSPHKVLVFVDSIGCTSCKLQLHRWKELIQYTDSITQGTVPFLFFFQSDDKKEIRYLLKKDNFDKPICMDQSDRLNELNHFPADGRFQTFLLDKDNKVVVIGNPIHNPNIRELYLKEITGKQPASQIQTTVKVEEASIQLGTIQMGESKEAVFRLTNTGNNPLVILDAATTCGCARPSFDKHPAKPGEILQVRVIMTPKDKGVFDETISVKCNTNQLIKLNIRGMAQ", "soluble on expression in E. coli": "not soluble"}
{"sequence": "MGSDKIHHHHHHLADVIYQAQPPLEFIPPAFNPLFLRFVHLLLPSWINWQTPITQIEADNVEVLVDLYRQFQEGKIRFMLAFRHPKTDDPFCLAYLLSQLVPKIARSQGTTLQLPIHAHFIYDRGIPLWAGSYVGWIASRLGGTPIQRGKADWTGLRSARDLFANGKFPMAAAPEGATNGLSENISPLEPGIAQLGFWCAEDLHKAERPEQVLIVPVGIKYSYVDAPWDAIANLLSELEAASGLPVNSAENASIESLYPRLLALAEHLLLLMEEFYTRFYHQKLPDSKIVNGQIPDRNEALAVRLQALLNAALLISEQYFNLQSKGSLSDRCRRVEQAGWNYIFREEFKDVKGVSAVERALGDRVAEEANARMWHMRLVESFVAVSGNYIRENPTVERFAETTLILWQMIAKIKGDKGVQRPQLGKQKVKITVGEPISISEHYPAYKENRLGARQAVADVTNDLQHALEGLI", "soluble on expression in E. coli": "not soluble"}
